Data from the supplement of paper PMC9170038.

Columns and labels:
MS2 coat protein [1] = assay: apparent KD of MS2 coat protein, switch ON state; designed switch direction (-1 OFF switch, 1 ON switch): -1; higher = weaker reporter binding; conditions: FMN input: 0 or 200 uM; Eterna round: R93 (includes R88 designs)
How it was run: (§1)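 Titration buffer: 100 mM Tris-HCl pH 7.5, 80 mM KCl, 4 mM MgCl2, without or with constant ligand. Designed RNA switches transcribed on-chip from Illumina sequencing clusters received SNAP-549-labelled MS2 coat protein in twofold steps from 0.7 or 1.5 nM to 3 µM. Apparent KD is the median per design of fits to normalised cluster binding curves.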

MS2 coat protein [2] = assay: apparent KD of MS2 coat protein, switch OFF state (with FMN for OFF switches, without FMN for ON switches); designed switch direction (-1 OFF switch, 1 ON switch): -1; higher = weaker reporter binding; conditions: FMN input: 0 or 200 uM; Eterna round: R93 (includes R88 designs)
How it was run: as §1

| Sequence | apparent KD of MS2 coat protein (MS2 coat protein [1]) [nM] | apparent KD of MS2 coat protein (MS2 coat protein [2]) [nM] |
| --- | --- | --- |
| ACCACACAUGAGGAUCACCCAUGUGAGGAUAUCUAGAAAACCUCAUGUAAAAAAAUCUAGAGAAGGCAUAUGAA [Design 93: Pseudoknot C] | 38.3 | 28.4 |
| ACGAAGAGAGGAUAUACGAACAUGUCAAAAGACGUGAAGGGACAUGAGGAUCACCCAUGUAGAAGGCUCUUCGA [Mat - Exclusion 2 - JL mod - D10] | 45.4 | 167 |
| AGAAAGUCAGGAUAUACGAACAAGAAAAAAGACGAGAACGGACAUGAGGAUCACCCAUGUAGAAGGGACAAGAA [Diamond 13] | 73.5 | 36.3 |
| AGAACGUGAGGAUAUACUAACAAACCUCAACAAACAAACAGACAUGAGGAUCACCCAUGUAGAAGGCACAAAAA [EXC - 2] | 54.2 | 27.2 |
| AGAAUACAUGAGGAUCACCCAUGUAAGGAUAUGUGAAGAAAAAGAAAAGAAAAGAAACACAGAAGGUACAAAAG [EX 1 May 18] | 30 | 65.8 |
| AGAAUACAUGAGGAUCACCCAUGUGAGGAUAUCAGAAGAAAAAGAAAAGAAAAGAAACUGAGAAGGCACAAAAG [EX 1 May 15] | 35.7 | 66.1 |
| AGCAAACAUGAGGAUCACCCAUGUCAGGAUAUGAACGAAAAUAAAUAAAAAUAAAAGUUCAGAAGGGACGAGCA [66%, Wbt, 25] | 43.2 | 50.1 |
| AGCAAGAGAGGAUAUACAUAGGAAAAAAAAGUUAGAUCCCUACAUGAGGAUCACCCAUGUAGAAGGCUCUGGCA [Ex2 Design 153: Sub-opt 17] | 42.2 | 37.1 |
| AGCUAGCAAGGAUAUACGAACAUGUCAAAAGACGUGAAGGGACAUGAGGAUCACCCAUGUAGAAGGUGCUAGCA [JL 74% mod 8] | 36.6 | 127 |
| AGCUAGCGAGGAUAUACGAACAUGUCAAAAGACGUGAAGGGACAUGAGGAUCACCCAUGUAGAAGGUGCUAGCA [JL 74% mod 7] | 31.8 | 70.3 |
| AGCUAGUCAGGAUAUACGAAAACGAACGAAGCUGAGAAGGGACAUGAGGAUCACCCAUGUAGAAGGGACUAGCA [Diamond 33] | 36.4 | 107 |
| AGCUAGUCAGGAUAUACGAACAUGUAAAAAGACGUGAAGGGACAUGAGGAUCACCCAUGUAGAAGGGACUAGAA [74%, Web mod - With 2 less C's] | 46.7 | 91.3 |
| AGCUAGUCAGGAUAUACGAACAUGUCAAAAGACGUGAAGGGACAUGAGGAUCACCCAUGUAGAAGGGACUAGCA [WEB mod] | 35.4 | 138 |
| AGCUAGUCAGGAUAUACGAACAUGUCAAAAGACGUGAAGGGACAUGAGGAUCACCCAUGUAGAAGGGACUAGCU [salish99-Ex2-20] | 28.8 | 106 |
| AGCUAGUCAGGAUAUACGAACAUGUCAAAAGACGUGAAUAAACAUGAGGAUCACCCAUGUAGAAGGGACUAGCA [Mat - Exclusion 2 - JL-Eli mod - D53] | 18.3 | 14.8 |
| AGCUAGUCAGGAUAUACGAACAUGUCAGAAGACGUGAAGGGACAUGAGGAUCACCCAUGUAGAAGGGACUAGCG [74%, Web mod - With 2 more G's] | 34.9 | 117 |
| AGCUAGUCAGGAUAUACGAGAAUGUCAAAAGACGUGAAGGGACAUGAGGAUCACCCAUGUAGAAGGGACUAGCA [Diamond 23] | 39.3 | 208 |
| AGCUAGUCAGGAUAUACGGACAUGUCAGGAGACGUGAAGGGACAUGAGGAUCACCCAUGUAGAAGGGACUAGCG [74%, Web mod - With 4 more G's] | 35.5 | 106 |
| AGCUAGUGAGGAUAUACGAACAUGUCAAAAGACGUGAAAAAACAUGAGGAUCACCCAUGUAGAAGGCACUAGCA [Mat - Exclusion 2 - JL-Eli mod - D56] | 19.2 | 16.9 |
| AGCUAGUGAGGAUAUACGAACAUGUCAACGGACUGUAAGGGACAUGAGGAUCACCCAUGUAGAAGGCACUAGCA [Diamond 57] | 67.2 | 165 |
| AGGAAACAUGAGGAUCACCCAUGUCAGGAUAUAGAAAAGAAAAGAAAAGAAAGAAGAACUAGAAGGGACAAGAA [Scorpion I] | 27.7 | 26.3 |
| AGGAAACAUGAGGAUCACCCAUGUCAGGAUAUAGGAAAGAAAAGAAAAGAAAGAAGAAUUAGAAGGGACAAGAA [King Scorpion] | 23.5 | 16.5 |
| AGGAAACAUGAGGAUCACCCAUGUGAGGAUAUAGAAAAGAAAAGAAAAGAAAGAAGAACUAGAAGGCACAAGAA [Neheb] | 31.2 | 28.8 |

| Sequence | apparent KD of MS2 coat protein (MS2 coat protein [1]) [nM] | apparent KD of MS2 coat protein (MS2 coat protein [2]) [nM] |
| --- | --- | --- |
| AGGAUGUCAGGAUAUGUGUAAAGAAUAAAACAAAUAACAACACAGAAGGGACAUGAGGAUCACCCAUGUUACCA [May 37] | 19.9 | 20.9 |
| AGGGAGUAAGGAUAUGAGAAAUAAAAAGAAGGAAAAAAAGAUCAGAAGGUACAUGAGGAUCACCCAUGUGGGAA [milkweed 10] | 43.1 | 39.9 |
| AGGGAGUGAGGAUAUGCGAAAGAAAAAGAAGGAAAAAAAGAGCAGAAGGUACAUGAGGAUCACCCAUGUAAAAA [milkweed 8] | 27.9 | 16.9 |
| AGUAUGCGAGGAUAUACAUGAGGAUCACCCAUGUGAGAGAUAAAAGUGAGAAAGAAAUGUAGAAGGCGCGUACA [JL Lego Mod 22] | 98.8 | 43 |
| AGUAUGCGAGGAUAUACAUGAGGAUCACCCAUGUGAGAGAUAAAAGUGAGAAAGACAAGUAGAAGGCGCGUACA [JL Lego Mod 23] | 54.8 | 354 |
| AGUAUGCGAGGAUAUACAUGAGGAUCACCCAUGUGAGAGAUAAGUGUGAGAAAGACAUGUAGAAGGCGCGUACA [JL Lego Mod 28] | 146 | 35.1 |
| AGUCAGAGAGGAUAUACAUGAAAAAAAAAAGUUAGAUCCCUACAUGAGGAUCACCCAUGUAGAAGGCUCUGACA [Ex2 Design 151: Sub-opt 15] | 57.8 | 27 |
| AGUCAUACAGGAUAUACAUGAGGAUCACCCAUGUAUAUCCAAAAAAGGUGAUCCUCAUGUAGAAGGGUAUGACA [EX3 202: Super Stable 2] | 13.7 | 26.9 |
| AGUCCAGAAGGAUAUACAUAGGUGAUAAAAAAAAAAAAACUACAUGAGGAUCACCCAUGUAGAAGGUCUGGACA [Brourd - Exclusion 2 - Sub 3] | 37.8 | 24.5 |
| AGUUGGCGAGGAUAUACAUGAGGAUCACCCAUGUAAAAUAAAUAAAAAAAGGGAGAAAGUAGAAGGCGCUGACA [73%, Moding Norbert Elias, 12] | 56.2 | 193 |
| AGUUGGCGAGGAUAUACAUGAGGAUCACCCAUGUAAAAUAAAUAAAAAAUAAAGGGAAGUAGAAGGCGCUGACA [73%, Moding Norbert Elias, 15] | 41.8 | 77 |
| AGUUGGCGAGGAUAUACAUGAGGAUCACCCAUGUAAAAUAAAUAAAAAGGGAAAGAAAGUAGAAGGCGCUGACA [73%, Moding Norbert Elias, 10] | 42.4 | 83.3 |
| AGUUGGCGAGGAUAUACAUGAGGAUCACCCAUGUAAAAUAAUGAAAAAGUAGGGAAAAGUAGAAGGCGCUGACA [73%, Moding Norbert Elias, 19] | 36.2 | 96.7 |
| AGUUGGCGAGGAUAUACAUGAGGAUCACCCAUGUGAGAGAAAAACUCGAAAGAGAAAAGUAGAAGGCGCUGACA [73%, Moding Norbert Elias, 6] | 19.3 | 82.2 |
| AUAAAGUAAGGAUAUGCGAAUAAAUAAGUAGACGAAUGAAAGCAGAAGGUACAUGAGGAUCACCCAUGUAAGAA [Ex 4 Tesla 2] | 30.3 | 19 |
| AUAAUGAGAGGAUAUACAUGAGGAUCACCCAUGUAAUUAACACGGCGAGCACCAAUACGUAGAAGGCUCAUUUA [JR_Exc003+Sub602] | 22.4 | 49.9 |
| AUAAUGUGAGGAUAUACAUGAGGAUCACCCAUGUAAUUAAAAAGGAGAGAAACAAUACGUAGAAGGUACAUUUA [JR_Exc003_Sub510] | 26.7 | 29 |
| AUAGGCCUAGGAUAUACAUGAGGAUCACCCAUGUAAACAGAUAGAUCAAGGUAAACGAGUAGAAGGAGGAAUAA [JR_Exc003_Sub209] | 22 | 17.8 |
| AUAGGUCGAGGAUAUACAUGAGGAUCACCCAUGUAAAUAAAUAAAUAAAACUCCACAAGUAGAAGGCGAAAUAA [JR_Exc003_Sub201] | 28.1 | 22.6 |
| AUAGUAGGAGGAUAUACAUAGAUACAGAUACAUGUAGACGUACAUGAGGAUCACCCAUGUAGAAGGCCUAUGAA [Mat - Same state - Mayanna Mod - D149] | 126 | 116 |
| AUCUAGUCAGGAUAUCGAUGAAAUGAAGUGAAAGAAAAGAACGAGAAGGGACAUGAGGAUCACCCAUGUUAGAA [EteRNA is fun!] | 31.2 | 18.8 |
| AUCUUGUGAGGAUAUGCAUGAAAUGAAGUGAAAGAAAAGAAGCAGAAGGCACAUGAGGAUCACCCAUGUUAGAA [EteRNA is fun!] | 33.5 | 62.2 |
